Data taken from patent US20070212363A1.

What was measured:
Assay in all cases: cell-based or functional assay
[1] = molecular target: HIV-1 AD8 envelope glycoprotein (Env) (HIV-1 strain AD8)
[2] = molecular target: HIV-1 IIIB envelope glycoprotein (Env) (HIV-1 strain IIIB)
[3] = molecular target: HIV-1 JR-FL envelope glycoprotein (Env) (HIV-1 strain JR-FL)

| Substance | Neutralizing activity (percentage) at 100 µg/mL [1] [%] | percentage of maximal infection, U87.CD4.CCR5.CXCR4 cells, 100 µg/mL antibody [1] [%] | Neutralizing activity (percentage) at 100 µg/mL [2] [%] | percentage of maximal infection, U87.CD4.CCR5.CXCR4 cells, 100 µg/mL antibody [2] [%] | Neutralizing activity (percentage) at 100 µg/mL [3] [%] | percentage of maximal infection, U87.CD4.CCR5.CXCR4 cells, 100 µg/mL antibody [3] [%] |
| --- | --- | --- | --- | --- | --- | --- |
| Fab X5 | 97 | 8.7 | 100 | 10 | 83 | 27 |
| IgG1 X5 (antibody) | 51 | 55 | 84 | 28 | 38 | 72 |
